{
  "source": "paper doi:10.1101/2024.08.10.607320",
  "key": {"[1]": {"target": "Collagen I (triple helix of two α1 chains and one α2 chain) (UniProt P02454)", "sequence (P02454 152-1207, chain 1 of 2)": "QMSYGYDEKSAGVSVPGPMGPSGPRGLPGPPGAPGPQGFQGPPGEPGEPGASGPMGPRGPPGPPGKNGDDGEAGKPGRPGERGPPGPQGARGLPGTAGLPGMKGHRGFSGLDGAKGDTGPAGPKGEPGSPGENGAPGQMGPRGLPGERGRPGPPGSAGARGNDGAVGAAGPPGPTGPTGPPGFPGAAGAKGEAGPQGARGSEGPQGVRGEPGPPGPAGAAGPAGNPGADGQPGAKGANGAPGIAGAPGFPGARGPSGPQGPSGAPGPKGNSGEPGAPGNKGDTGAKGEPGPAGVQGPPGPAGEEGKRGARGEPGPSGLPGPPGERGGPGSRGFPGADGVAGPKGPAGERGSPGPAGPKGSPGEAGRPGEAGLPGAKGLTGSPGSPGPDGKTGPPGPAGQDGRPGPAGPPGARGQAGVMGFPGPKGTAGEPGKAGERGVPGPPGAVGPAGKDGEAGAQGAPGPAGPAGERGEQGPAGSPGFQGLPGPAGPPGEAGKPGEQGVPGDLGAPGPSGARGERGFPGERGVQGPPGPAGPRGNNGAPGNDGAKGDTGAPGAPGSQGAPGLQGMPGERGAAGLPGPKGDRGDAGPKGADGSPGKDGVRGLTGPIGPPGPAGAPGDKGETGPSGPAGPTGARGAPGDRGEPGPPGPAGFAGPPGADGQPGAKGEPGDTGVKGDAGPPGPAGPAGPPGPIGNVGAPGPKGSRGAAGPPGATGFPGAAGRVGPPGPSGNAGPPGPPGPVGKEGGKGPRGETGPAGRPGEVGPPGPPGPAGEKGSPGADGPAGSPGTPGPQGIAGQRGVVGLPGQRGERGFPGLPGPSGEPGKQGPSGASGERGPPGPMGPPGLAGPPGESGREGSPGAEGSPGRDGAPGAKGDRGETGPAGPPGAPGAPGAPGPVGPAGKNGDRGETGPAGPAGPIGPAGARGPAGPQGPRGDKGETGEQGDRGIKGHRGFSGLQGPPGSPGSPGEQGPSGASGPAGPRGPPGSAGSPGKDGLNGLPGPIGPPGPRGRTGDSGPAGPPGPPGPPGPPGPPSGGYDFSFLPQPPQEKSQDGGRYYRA", "sequence (P02466 86-1125, chain 2 of 2, further chain)": "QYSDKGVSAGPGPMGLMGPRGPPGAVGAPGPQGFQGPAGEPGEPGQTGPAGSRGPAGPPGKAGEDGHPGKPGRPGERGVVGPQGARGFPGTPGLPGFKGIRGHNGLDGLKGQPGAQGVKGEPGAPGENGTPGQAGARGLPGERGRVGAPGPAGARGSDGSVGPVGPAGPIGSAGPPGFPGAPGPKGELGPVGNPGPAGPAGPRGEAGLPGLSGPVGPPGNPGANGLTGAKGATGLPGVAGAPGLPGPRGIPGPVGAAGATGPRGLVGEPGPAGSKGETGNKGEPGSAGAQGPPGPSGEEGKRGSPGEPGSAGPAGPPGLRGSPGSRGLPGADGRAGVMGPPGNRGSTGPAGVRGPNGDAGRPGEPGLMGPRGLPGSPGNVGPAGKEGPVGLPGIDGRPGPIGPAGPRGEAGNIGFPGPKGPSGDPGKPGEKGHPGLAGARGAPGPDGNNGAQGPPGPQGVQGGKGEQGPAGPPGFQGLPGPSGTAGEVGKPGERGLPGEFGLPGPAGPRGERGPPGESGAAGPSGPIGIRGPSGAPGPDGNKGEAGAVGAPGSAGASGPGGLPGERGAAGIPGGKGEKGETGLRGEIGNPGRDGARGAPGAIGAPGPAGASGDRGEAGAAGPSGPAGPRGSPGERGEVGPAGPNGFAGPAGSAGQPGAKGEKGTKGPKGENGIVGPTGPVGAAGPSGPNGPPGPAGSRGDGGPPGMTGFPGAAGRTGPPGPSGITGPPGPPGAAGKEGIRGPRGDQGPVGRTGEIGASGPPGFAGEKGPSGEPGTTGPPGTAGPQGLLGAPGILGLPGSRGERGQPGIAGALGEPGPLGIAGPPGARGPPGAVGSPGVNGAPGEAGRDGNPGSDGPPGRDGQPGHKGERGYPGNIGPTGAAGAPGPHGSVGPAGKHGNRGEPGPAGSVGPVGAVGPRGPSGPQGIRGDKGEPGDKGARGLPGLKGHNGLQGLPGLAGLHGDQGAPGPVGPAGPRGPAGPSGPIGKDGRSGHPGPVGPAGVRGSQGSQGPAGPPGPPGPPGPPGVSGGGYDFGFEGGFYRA", "test": "SPR"}, "[2]": {"target": "Collagen I (triple helix of two α1 chains and one α2 chain) (UniProt P02454)", "test": "AFM adhesion force"}},
  "data": [
    {"substance": "Amylin1-37 (human islet amyloid polypeptide), recombinant, monomer (from UniProt P10997 34-70)", "values": [
      {"measurement": "Kd", "setting": "[1]", "result": 6.27, "unit": "µM"},
      {"measurement": "peak force (maximum unbinding force)", "setting": "[2]", "result": 3.5, "unit": "nN"}
    ]}
  ]
}
